Numbering of substitutions follows the chain as printed.

The labels stand for the following.
T1: human Claudin 18.2 (human, UniProt P56856-2 1-261)
T1 construct: whole, on cells
T1 sequence (looked up): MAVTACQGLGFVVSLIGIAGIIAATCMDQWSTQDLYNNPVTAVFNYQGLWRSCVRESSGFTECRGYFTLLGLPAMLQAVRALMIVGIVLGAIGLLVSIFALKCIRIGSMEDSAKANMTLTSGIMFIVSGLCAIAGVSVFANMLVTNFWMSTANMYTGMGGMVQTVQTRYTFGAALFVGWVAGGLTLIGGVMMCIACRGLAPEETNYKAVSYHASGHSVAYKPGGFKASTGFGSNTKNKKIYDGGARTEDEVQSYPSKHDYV

B1: h15F9.v25 (antibody, V domains shown)
VH: QIQLVQSGSELKKPGASVKVSCKASGYTFTNYGINWVRQAPGQGLEWMGWINPNTGETTYAEGFTGRFVLSWDTSVSTAYLQISSLKAEDTAVYFCARLYYGNRFDSWGQGTLVTVSS
VL: DIVMTQSPDSLAVSLGERATINCKSSQSLLNSGNQRNYLAWYQQKPGQPPKLLIYWASTRESGVPDRFSGSGSGTDFTLTISSLQAEDVAVYYCQQAYYYPLTFGGGTKVEIK
notes: Humanized; also called 15F9VLv2 + 15F9VHv5
B2: h18A9.v12 (antibody, V domains shown)
VH: QVQLVQSGAEVKKPGSSVKVSCKPSGYTFTNYLIDWVRQAPGQGLEWMGGINPGSGDTVYNEKFQGRVTLTADESTSTAYMELSSLRSEDTAVYFCARRVRGNSFDSWGQGTLVTVSS
VL: B1 VL with R36K, A40T, T75K, Q96N, A97N, Y99F
notes: Humanized; also called 18A9VLv1 + 18A9VHv2
B3: 18D10.V13 (antibody, V domains shown)
VH: QVQLQESGPGLVKPSETLSLTCTVSGGSISSNYAWNWIRQPPGKGLEWIGYINYSGNTNYNPSLKSRVTISRDTSKNQFSLKLSSVTAADTAVYYCATSYYGNSFIYWGQGTLVTVSS
VL: B1 VL with R36K, A40T, Q96N, Y99S, Y100F, L102W, G106Q
notes: Humanized; also called 18D10VLv1 + 18D10VHv3
B4: h15F9.v15 (antibody, V domains shown)
VH: B1 VH
VL: B1 VL with A40T, Q96N
notes: Humanized; also called 15F9VLv1 + 15F9VHv5
B5: h18A9.v11 (antibody, V domains shown)
VH: B2 VH with T28A, E74K, T76S, S77M
VL: B1 VL with R36K, A40T, T75K, Q96N, A97N, Y99F
notes: Humanized; also called 18A9VLv1 + 18A9VHv1
B6: h18A9.v13 (antibody, V domains shown)
VH: B2 VH with E74K, T76S, S77M, F95Y
VL: B1 VL with R36K, A40T, T75K, Q96N, A97N, Y99F
notes: Humanized; also called 18A9VLv1 + 18A9VHv3
B7: h15F9.v15r1 (antibody, V domains shown)
VH: B1 VH with I2V, G63E, T65K, L70F, W72L
VL: B1 VL with A40T, Q96N
notes: Humanized; also called 15F9VLv1 + 15F9VHv5r1
B8: 18D10.V26 (antibody, V domains shown)
VH: B3 VH with N53Y
VL: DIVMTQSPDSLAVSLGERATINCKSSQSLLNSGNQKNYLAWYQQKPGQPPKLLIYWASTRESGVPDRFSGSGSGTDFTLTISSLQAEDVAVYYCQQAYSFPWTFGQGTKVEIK
notes: Humanized; also called 18D10VLv2 + 18D10VHv6
B9: 18D10.V16 (antibody, V domains shown)
VH: B3 VH with N53Y
VL: B1 VL with R36K, A40T, Q96N, Y99S, Y100F, L102W, G106Q
notes: Humanized; also called 18D10VLv1 + 18D10VHv6
B10: 18D10.V14 (antibody, V domains shown)
VH: B3 VH with N57Y
VL: B1 VL with R36K, A40T, Q96N, Y99S, Y100F, L102W, G106Q
notes: Humanized; also called 18D10VLv1 + 18D10VHv4
B11: 18D10.V11 (antibody, V domains shown)
VH: B3 VH with G27Y, S30T
VL: B1 VL with R36K, A40T, Q96N, Y99S, Y100F, L102W, G106Q
notes: Humanized; also called 18D10VLv1 + 18D10VHv1
B12: h18A9.v21 (antibody, V domains shown)
VH: B2 VH with T28A, E74K, T76S, S77M
VL: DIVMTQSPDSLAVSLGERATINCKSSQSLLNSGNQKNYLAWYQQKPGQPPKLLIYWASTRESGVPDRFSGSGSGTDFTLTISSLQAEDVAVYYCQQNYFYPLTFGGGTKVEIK
notes: Humanized; also called 18A9VLv2 + 18A9VHv1
B13: 18D10.V23 (antibody, V domains shown)
VH: B3 VH
VL: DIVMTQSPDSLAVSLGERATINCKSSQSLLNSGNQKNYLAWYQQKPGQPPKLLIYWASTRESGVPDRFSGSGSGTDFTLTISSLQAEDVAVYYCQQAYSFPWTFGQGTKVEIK
notes: Humanized; also called 18D10VLv2 + 18D10VHv3
B14: 18D10.V22 (antibody, V domains shown)
VH: B3 VH with I49M, V68I
VL: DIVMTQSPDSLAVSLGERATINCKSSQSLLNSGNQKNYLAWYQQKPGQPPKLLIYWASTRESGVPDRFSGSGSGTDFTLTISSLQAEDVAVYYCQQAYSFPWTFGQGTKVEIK
notes: Humanized; also called 18D10VLv2 + 18D10VHv2
B15: h15F9.v25r1 (antibody, V domains shown)
VH: B1 VH with I2V, G63E, T65K, L70F, W72L
VL: B1 VL
notes: Humanized; also called 15F9VLv2 + 15F9VHv5r1
B16: h18A9.v17 (antibody, V domains shown)
VH: B2 VH with S16A, E74T, A79V
VL: B1 VL with R36K, A40T, T75K, Q96N, A97N, Y99F
notes: Humanized; also called 18A9VLv1 + 18A9VHv7
B17: h15F9.v35r2 (antibody, V domains shown)
VH: B1 VH with Q1E, I2V, N54Y, G63E, T65K, L70F, W72L
VL: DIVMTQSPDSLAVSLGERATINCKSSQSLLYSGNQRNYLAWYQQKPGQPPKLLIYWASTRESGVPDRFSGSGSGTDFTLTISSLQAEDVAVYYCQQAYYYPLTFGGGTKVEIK
notes: Humanized; also called 15F9VLv3 + 15F9VHv5r2
B18: 18D10.V12 (antibody, V domains shown)
VH: B3 VH with I49M, V68I
VL: B1 VL with R36K, A40T, Q96N, Y99S, Y100F, L102W, G106Q
notes: Humanized; also called 18D10VLv1 + 18D10VHv2
B19: h18A9.v23 (antibody, V domains shown)
VH: B2 VH with E74K, T76S, S77M, F95Y
VL: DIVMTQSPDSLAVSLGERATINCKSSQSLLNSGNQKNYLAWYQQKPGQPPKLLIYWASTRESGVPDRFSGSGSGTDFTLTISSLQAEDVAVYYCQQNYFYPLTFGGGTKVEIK
notes: Humanized; also called 18A9VLv2 + 18A9VHv3
B20: h15F9.v36 (antibody, V domains shown)
VH: B1 VH with N54G
VL: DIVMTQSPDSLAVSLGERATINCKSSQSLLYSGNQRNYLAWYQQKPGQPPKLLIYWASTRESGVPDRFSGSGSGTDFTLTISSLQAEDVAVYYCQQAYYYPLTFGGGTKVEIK
notes: Humanized; also called 15F9VLv3 + 15F9VHv6
B21: h18A9.v15 (antibody, V domains shown)
VH: B2 VH with L70I
VL: B1 VL with R36K, A40T, T75K, Q96N, A97N, Y99F
notes: Humanized; also called 18A9VLv1 + 18A9VHv5
B22: h18A9.v16 (antibody, V domains shown)
VH: B2 VH with S16A, T28A, E74K, T76S
VL: B1 VL with R36K, A40T, T75K, Q96N, A97N, Y99F
notes: Humanized; also called 18A9VLv1 + 18A9VHv6
B23: h15F9.v35r1 (antibody, V domains shown)
VH: B1 VH with I2V, G63E, T65K, L70F, W72L
VL: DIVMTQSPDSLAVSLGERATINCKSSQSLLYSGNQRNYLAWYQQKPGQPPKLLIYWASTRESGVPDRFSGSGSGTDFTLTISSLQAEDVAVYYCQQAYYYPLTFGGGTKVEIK
notes: Humanized; also called 15F9VLv3 + 15F9VHv5r1
B24: h18A9.v25 (antibody, V domains shown)
VH: B2 VH with L70I
VL: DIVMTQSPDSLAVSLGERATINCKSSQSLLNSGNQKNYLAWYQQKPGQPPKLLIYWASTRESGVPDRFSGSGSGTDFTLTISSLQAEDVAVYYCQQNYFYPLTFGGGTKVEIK
notes: Humanized; also called 18A9VLv2 + 18A9VHv5
B25: h18A9.v27 (antibody, V domains shown)
VH: B2 VH with S16A, E74T, A79V
VL: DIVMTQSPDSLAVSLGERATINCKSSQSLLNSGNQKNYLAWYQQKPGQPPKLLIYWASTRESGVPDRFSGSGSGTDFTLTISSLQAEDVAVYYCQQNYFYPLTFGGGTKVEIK
notes: Humanized; also called 18A9VLv2 + 18A9VHv7
B26: h18A9.v24 (antibody, V domains shown)
VH: B2 VH with P24A, E74K, T76S, S77M
VL: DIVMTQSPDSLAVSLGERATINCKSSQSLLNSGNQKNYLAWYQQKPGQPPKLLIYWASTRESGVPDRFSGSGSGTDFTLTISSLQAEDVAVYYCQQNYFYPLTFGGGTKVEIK
notes: Humanized; also called 18A9VLv2 + 18A9VHv4
B27: h15F9.v35 (antibody, V domains shown)
VH: B1 VH
VL: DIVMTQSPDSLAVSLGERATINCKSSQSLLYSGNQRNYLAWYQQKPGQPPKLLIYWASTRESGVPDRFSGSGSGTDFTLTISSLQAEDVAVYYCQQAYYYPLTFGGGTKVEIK
notes: Humanized; also called 15F9VLv3 + 15F9VHv5
B28: h15F9.v25r2 (antibody, V domains shown)
VH: B1 VH with Q1E, I2V, N54Y, G63E, T65K, L70F, W72L
VL: B1 VL
notes: Humanized; also called 15F9VLv2 + 15F9VHv5r2
B29: 18D10.V24 (antibody, V domains shown)
VH: B3 VH with N57Y
VL: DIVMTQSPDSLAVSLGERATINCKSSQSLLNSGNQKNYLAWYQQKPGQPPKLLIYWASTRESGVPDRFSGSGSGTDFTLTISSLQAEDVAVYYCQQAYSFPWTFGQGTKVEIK
notes: Humanized; also called 18D10VLv2 + 18D10VHv4
B30: h15F9.v16 (antibody, V domains shown)
VH: B1 VH with N54G
VL: B1 VL with A40T, Q96N
notes: Humanized; also called 15F9VLv1 + 15F9VHv6
B31: 18D10.V15 (antibody, V domains shown)
VH: B3 VH with N59A
VL: B1 VL with R36K, A40T, Q96N, Y99S, Y100F, L102W, G106Q
notes: Humanized; also called 18D10VLv1 + 18D10VHv5
B32: 18D10.V21 (antibody, V domains shown)
VH: B3 VH with G27Y, S30T
VL: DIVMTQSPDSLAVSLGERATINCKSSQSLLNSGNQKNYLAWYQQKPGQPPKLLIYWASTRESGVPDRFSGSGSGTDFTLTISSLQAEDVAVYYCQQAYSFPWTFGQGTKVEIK
notes: Humanized; also called 18D10VLv2 + 18D10VHv1
B33: h18A9.v22 (antibody, V domains shown)
VH: B2 VH
VL: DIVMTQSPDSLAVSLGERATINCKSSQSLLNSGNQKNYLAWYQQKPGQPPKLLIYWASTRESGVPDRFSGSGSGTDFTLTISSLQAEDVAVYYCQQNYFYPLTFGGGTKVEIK
notes: Humanized; also called 18A9VLv2 + 18A9VHv2
B34: h15F9.v15r2 (antibody, V domains shown)
VH: B1 VH with Q1E, I2V, N54Y, G63E, T65K, L70F, W72L
VL: B1 VL with A40T, Q96N
notes: Humanized; also called 15F9VLv1 + 15F9VHv5r2
B35: h18A9.v14 (antibody, V domains shown)
VH: B2 VH with P24A, E74K, T76S, S77M
VL: B1 VL with R36K, A40T, T75K, Q96N, A97N, Y99F
notes: Humanized; also called 18A9VLv1 + 18A9VHv4
B36: 18D10.V25 (antibody, V domains shown)
VH: B3 VH with N59A
VL: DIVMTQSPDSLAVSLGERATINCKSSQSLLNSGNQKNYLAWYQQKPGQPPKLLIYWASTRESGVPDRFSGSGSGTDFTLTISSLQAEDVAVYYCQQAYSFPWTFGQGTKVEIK
notes: Humanized; also called 18D10VLv2 + 18D10VHv5
B37: h15F9.v26 (antibody, V domains shown)
VH: B1 VH with N54G
VL: B1 VL
notes: Humanized; also called 15F9VLv2 + 15F9VHv6
B38: h18A9.v26 (antibody, V domains shown)
VH: B2 VH with S16A, T28A, E74K, T76S
VL: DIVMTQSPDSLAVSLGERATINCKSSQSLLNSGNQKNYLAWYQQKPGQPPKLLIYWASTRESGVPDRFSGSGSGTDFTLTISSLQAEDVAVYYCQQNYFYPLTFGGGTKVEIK
notes: Humanized; also called 18A9VLv2 + 18A9VHv6

The assay concerns the target T1, human Claudin 18.2. Briefly: flow cytometry (iQue) on cells, antibody from 100 nM in 5-fold steps; cell line not named in Example 5. Here is the method:
The cells at logarithmic growth phase were taken, blocked with 3% BSA for 30 minutes, plated at 5×10⁴ cells/100 μL into a U-shaped 96-well plate, centrifuged at 1100 rpm for 3 minutes, the supernatant was discarded, the cells were gently patted and loosed, 50 μL of antibody diluted according to the series was added to each well (antibody concentration starts from 100 nM, 5 times dilution in 8 series), incubated at 4° C. for 1 hour. After the incubation, 140 μL of 0.5% BSA was added to each well to wash 3 times, AF 647 APC anti-human secondary antibody was added with 30 μL/well and incubated at 4° C. for 40 minutes. After the incubation, 140 μL of 0.5% BSA was added to each well to wash 3 times, and finally resuspended each well with 50 μL PBS for iQue (Intellicyt, USA) detection (shown in Table 2).
In general terms: A flow cytometer gives signals particle by particle.
For B1, a half-maximal effect (EC50) was put at 0.773 nM.

B2 displayed an EC50 of 0.913 nM.

B3 showed an EC50 of 0.912 nM.

In turn, B4 came in with an EC50 of 1.67 nM.

As for B5, the EC50 is 0.645 nM.

As to B6, the EC50 was found to be 0.761 nM.

B7 gave an EC50 of 2.53 nM.

The molecule B8 displayed an EC50 of 1.87 nM.

As to B9, the EC50 is 2.31 nM.

For the molecule B10, the EC50 came to 1.74 nM.

Molecule B11 gave an EC50 of 1.13 nM.

In turn, B12 yielded an EC50 of 1.03 nM.

As to B13, the EC50 turned out to be 0.982 nM.

As for B14, the EC50 worked out at 1.9 nM.

B15 showed an EC50 of 1.72 nM.

Consider B16, for which the EC50 was 1.43 nM.

For B17, it took 0.879 nM to reach a half-maximal effect (EC50).

B18 returned an EC50 of 1.68 nM.

Turning to B19, the response was half-maximal at 1.17 nM (EC50).

Take B20: the EC50 was determined as 0.786 nM.

In turn, B21 had an EC50 of 1.41 nM.

Molecule B22 yielded an EC50 of 0.799 nM.

Take B23: the response was half-maximal at 1.2 nM (EC50).

As for B24, the midpoint of the response, the EC50, lay at 0.964 nM.

As for B25, the EC50 is 0.646 nM.

B26: the EC50 stood at 2.06 nM.

Regarding B27, the EC50 amounted to 0.951 nM.

B28 displayed an EC50 of 1.61 nM.

In turn, B29 showed a concentration giving a half-maximal response (EC50) of 1.93 nM.

B30 returned an EC50 of 0.705 nM.

As to B31, the EC50 amounted to 2.69 nM.

Regarding B32, the midpoint of the response, the EC50, lay at 1.07 nM.

Regarding B33, a half-maximal response (EC50) required 0.822 nM.

The molecule B34 came in with an EC50 of 1.65 nM.

Molecule B35 returned an EC50 of 0.548 nM.

Turning to B36, the concentration for a half-maximal effect (EC50) amounted to 1.26 nM.

The molecule B37 gave an EC50 of 1.02 nM.

As for B38, the EC50 amounted to 1.41 nM.

Usually EC50 stands for the concentration giving half of the maximal effect.

These data come from patent publication US20220372112A1 (KEYMED BIOSCIENCES, published 2022).
